# Reference: the RNAGym collection of RNA variant scans (doi:10.1093/molbev/msab373)
# B1: Azoarcus group I ribozyme (parent)
# chain: GUGCCUUGCGCCGGGAAACCACGCAAGGGAUGGUGUCAAAUUCGGCGAAACCUAAGCGCCCGCCCGGGCGUAUGGCAACGCCGAGCCAAGCUUCGGCGCCUGCGCCGAUGAAGGUGUAGAGACUAGACGGCACCCACCUAAGGCAAACGCUAUGGUGAAGGCAUAGUCCAGGGAGUGGCGAAAGUCACACAAACCGG
# Variants of: B1
# Assay: reverse-splicing fitness (ratio to wild type); higher = more active; in vitro selection; Mg2+ level not given
# Procedure, shortened: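 An in vitro group I ribozyme library with randomized positions was T7-transcribed and gel-purified. In triplicate, 10 pmol RNA in EPPS pH 7.5 was reacted with 50 pmoles of a 30-nt RNA substrate for 1 h at 37 °C across several added MgCl2 levels (1–48 mM), then stopped with EDTA. Products were reverse transcribed from a substrate-complementary primer, PCR-amplified and sequenced (HiSeq 4000). Fitness is a variant's read proportion after selection over that before, normalised to wild type.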
row,Variant,reverse-splicing fitness
1,A111C A120U C150G C169G U176G,0.00234
2,A111C A120U U176C,0.257
3,A111C A120U U176A,0.22
4,A111C A120U U176G,0.0937
5,A111C A120G C169G U176A,0.0304
6,A111C A120G C169G U176G,0.00449
7,A111C A120G C169G U176C,0.0444
8,A111C A120U A145U C150A C169U U176A,0.00386
9,A111C A120U A145U C150A C169U U176G,0.00271
10,A111C A120U A145U C150A C169U U176C,0.0049
11,A111C A120U A145U C150A C169G U176C,0.00388
12,A111C A120U A145U C150A C169G U176A,0.00295
13,A111C A120U A145U C150A C169G U176G,0.00199
14,A111C A120U A145U C150G C169G U176A,0.00267
15,A111C A120U A145U C150G C169G U176G,0.00233
16,A111C A120U A145U C150G C169G U176C,0.00291
17,A111C A120U C169U U176G,0.00263
18,A111C A120U C169U U176A,0.0143
19,A111C A120U C169U U176C,0.0214
20,A111C A145C C150A C169U U176C,0.0102
21,A111C A145C C150A C169U U176G,0.00658

row,Variant,reverse-splicing fitness
1,A111C A145C C150A C169U U176A,0.0151
2,A111C A120U A145C C150A C169U U176A,0.00457
3,A111C A120U A145C C150A C169U U176G,0.00242
4,A111C A120U A145C C150A C169U U176C,0.00283
5,A111C A120U A145G C169A U176A,0.00375
6,A111C A120U A145G C169A U176G,0.00216
7,A111C A120U A145G C169A U176C,0.00408
8,A111C A120U A145C C150U C169A,0.00231
9,A111C A120U A145C C150U C169U,0.0171
10,A111C A120U A145C C150U C169G,0.0128
11,A111C A120U C150A U176G,0.0153
12,A111C A120U C150A U176C,0.0376
13,A111C A120U C150A U176A,0.0268
14,A111C A120U A145G C150A C169G U176A,0.00653
15,A111C A120U A145G C150A C169G U176C,0.00682
16,A111C A120U A145G C150A C169G U176G,0.00255
17,A111C A145C C150G C169G U176G,0.0057
18,A111C A145C C150G C169G U176A,0.00768
19,A111C A145C C150G C169G U176C,0.00915
20,A111C A120U C169A,0.00479
21,A111C A120U C169U,0.0792

row,Variant,reverse-splicing fitness
1,A111C A120U C169G,0.0632
2,A111C A145C,0.768
3,A111C A120U C150A C169G,0.00691
4,A111C A120U C150A C169A,0.00557
5,A111C A120U C150A C169U,0.00953
6,A111C A120U A145U C169A U176G,0.00217
7,A111C A120U A145U C169A U176C,0.00217
8,A111C A120U A145U C169A U176A,0.00268
9,A111C A120U A145C C169A U176C,0.00231
10,A111C A120U A145C C169A U176A,0.00217
11,A111C A120U A145C C169A U176G,0.00212
12,A111C A120U A145G C150G C169G U176A,0.00935
13,A111C A120U A145G C150G C169G U176G,0.00386
14,A111C A120U A145G C150G C169G U176C,0.00876
15,A111C A120U A145C C150G C169A,0.00389
16,A111C A120U A145C C150G C169G,0.00714
17,A111C A120U A145C C150G C169U,0.0105
18,A111C A120U C150A,0.0711
19,A111C A120U C150U,0.416
20,A111C A120U C150G,0.0546
21,A111C A120U A145C C150U C169U U176A,0.00478

row,Variant,reverse-splicing fitness
1,A111C A120U A145C C150U C169U U176G,0.00251
2,A111C A120U A145C C150U C169U U176C,0.00414
3,A111C A120U C150U U176G,0.0367
4,A111C A120U C150U U176C,0.194
5,A111C A120U C150U U176A,0.145
6,A111C A120U A145C C150G,0.0809
7,A111C A120U A145C C150U,0.18
8,A111C A120U A145C C150A,0.0314
9,A111C A120U C150G C169U U176G,0.00276
10,A111C A120U C150G C169U U176A,0.00446
11,A111C A120U C150G C169U U176C,0.00564
12,A111C A120G C150G C169U U176A,0.00966
13,A111C A120G C150G C169U U176C,0.0154
14,A111C A120G C150G C169U U176G,0.00441
15,A111C A120U A145G C150U C169A U176G,0.00278
16,A111C A120U A145G C150U C169A U176C,0.00404
17,A111C A120U A145G C150U C169A U176A,0.00648
18,A111C A145C C150A C169A U176C,0.00898
19,A111C A145C C150A C169A U176G,0.00714
20,A111C A145C C150A C169A U176A,0.0117
21,A111C A120U A145G C150U C169U U176C,0.0178
